Measurements as given in article PMC8053115.

Target: T1, NP C-terminal tail peptide (Influenza A virus A/HK/483/97 (H5N1), UniProt Q9PX50)
T1 chain: DNAEEYDN
Assay: MST

Binder: UUUUUUUUU (XNA, 2'-O-methyl) [Cy5 9-mer poly-uridine RNA]
- binding result: no binding
